The source of these data is PMC2804184.

The experiment addresses p97 C-terminal peptide (last 10 residues, …), N-terminally labeled with fluorescein. As to the kind of experiment: fluorescence polarisation.

For the substance “PLAA C-terminal PUL domain (residues 454-738) (domain or fragment)”, the dissociation constant (Kd) was found to be 5 µM.
